Data taken from PMC7432317, “Structural Analysis of the SANT/Myb Domain of FLASH and YARP Proteins and Their Complex with the C-Terminal Fragment of NPAT by NMR Spectroscopy and Computer Simulations” (International Journal of Molecular Sciences, 2020).

Target: T1, C-terminal fragment of FLICE-associated huge protein (FLASH), residues 1923-1982 (human, UniProt Q9UKL3 1923-1982)
T1 construct: FLASH (FLICE-associated huge protein), residues 1923-1982; residue 1982 is the C-terminal amino acid of the protein; Uniformly 15N- or 13C,15N-labelled for NMR; also called FLASH fragment; SANT/Myb domain of FLASH; source: E. coli BL21 (DE3), pET28a, minimal M9 media, purified (nickel beads, SEC Superdex 75)
T1 sequence (looked up): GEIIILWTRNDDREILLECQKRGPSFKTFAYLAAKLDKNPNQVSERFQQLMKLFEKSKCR
Assay: NMR titration; 1H-15N HSQC of 15N-labelled FLASH fragment (300 uM) with step-wise addition of the NPAT peptide (150 uM, two fold molar excess of FLASH analysed; equimolar mixtures precipitated); 25 mM TRIS-HCl, 200 mM KCl, pH 6.2, 50 mM Arg+Glu, 40 mM TCEP, 298 K
Details: both partners purified

B1: NPAT peptide, the last 31 residues of NPAT (1397-1427) (peptide)
peptide: KKKKIKKKKLPSSFPAGMDVDKFLLSLHYDE
notes: Free N-terminus, carboxyl at C-terminus; also called C-terminal NPAT peptide; source: synthetic peptide (Fmoc solid phase synthesis, RP-HPLC purified)
- binding result: binds
